Reference: doi:10.1101/2021.12.03.471045 (bioRxiv, 2021)

Biological target: early pandemic (Wuhan) SARS-CoV-2 RBD (SARS-CoV-2, UniProt P0DTC2)
Experiment: SPR
Settings: both partners purified

B1: EY6A mAb (IgG) (antibody, V domains shown)
VH: EVQLVESGGGVVQPGRSLRLSCAASAFTFSSYDMHWVRQAPGKGLEWVAVISYDGSNKYYADSVKGRFTISRDNSKNTLYLQMNSLRAEDTAVYYCAKDGGKLWVYYFDYWGQGTLVTVSS
VL: not shown
Kd: 7.8 nM
